# According to publication PMC6892922:
# B1: Ehg1-Cub-LV [S. cerevisiae] / NubG-Bap2 [S. cerevisiae] (parent)
# chain 1: MRSFVTNNDIPVGYVTPKFPSLYWPINNSKYNTAFLYYISDIWKFSLYWTLIFNGAFYVTAGVYASLTHRKKAGSVWIFVMYVLYGGVQGLTTGTVMGFLIGAIYRSGLFSMSTWVPLCCAVVQILFDVVLSYSMVGSVM
# chain 2: MLSSEDFGSSGKKETSPDSISIRSFSAGNNFQSSSSEKTYSKQKSGSDKLIHRFADSFKRAEGSTTRTKQINENTSDLEDGVESITSDSKLKKSMKSRHVVMMSLGTGIGTGLLVANAKGLHYGGPAALIIGYILVSFVTYFMIQAAGEMAVTYPTLPANFNAYSSIFISKSFGFATVWLYCFQWLTVLPLELITASMTIQFWNDKINPDIYILIFYVFLVFIHFFGVKAYGETEFIFNCCKILMIAGFIILSIVINCGGAGNDGYIGATYWHNPGAFAGDTSIGRFKNVCYILVTAYFSFGGMELFALSVQEQSNPRKSTPVAAKRSIYRIVVIYLLTMILIGFNVPYNDDQLMGAGGSATHASPYVLAASIHGVKIVPHIINAVILISVVSVANSSLYAGPRLICSLAQQGYAPKFLDYVDREGRPLRALIVCCVFGVIAFVAASSKEEIVFTWLAAIAGLSELFTWTSIMLSHLRFRQAMKVQGRSLDELGYKATTGIWGSIYGVFFNILVFVAQFWVALAPLGNGGKCDAESFFQNYLAFPIWLAFYFGYMVYNRDFTLLNPLDKIDLDFHRRIYDPELMRQEDEENKEKLRNMSLMRKAYHFWC
# B2: Ehg1-Cub-LV [S. cerevisiae] / NubG-Fur4 [S. cerevisiae] (parent)
# chain 1: B1 chain 1
# chain 2: MPDNLSLHLSGSSKRLNSRQLMESSNETFAPNNVDLEKEYKSSQSNITTEVYEASSFEEKVSSEKPQYSSFWKKIYYEYVVVDKSILGVSILDSFMYNQDLKPVEKERRVWSWYNYCYFWLAECFNINTWQIAATGLQLGLNWWQCWITIWIGYGFVGAFVVLASRVGSAYHLSFPISSRASFGIFFSLWPVINRVVMAIVWYSVQAYIAATPVSLMLKSIFGKDLQDKIPDHFGSPNATTYEFMCFFIFWAASLPFLLVPPHKIRHLFTVKAVLVPFASFGFLIWAIRRAHGRIALGSLTDVQPHGSAFSWAFLRSLMGCMANFSTMVINAPDFSRFSKNPNSALWSQLVCIPFLFSITCLIGILVTAAGYEIYGINYWSPLDVLEKFLQTTYNKGTRAGVFLISFVFAVAQLGTNISANSLSCGTDMSAIFPKFINIKRGSLFCAAMALCICPWNLMATSSKFTMALSAYAIFLSSIAGVVCSDYFVVRRGYIKLTHIYSHQKGSFYMYGNRFGINWRALAAYLCGVAPCLPGFIAEVGAPAIKVSDGAMKLYYLSYWVGYGLSFSSYTALCYFFPVPGCPVNNIIKDKGWFQRWANVDDFEEEWKDTIERDDLVDDNISVYEHEHEKTFI
# B3: Ehg1-Cub-LV [S. cerevisiae] / NubG-Hip1 [S. cerevisiae] (parent)
# chain 1: B1 chain 1
# chain 2: MPRNPLKKEYWADVVDGFKPATSPAFENEKESTTFVTELTSKTDSAFPLSSKDSPGINQTTNDITSSDRFRRNEDTEQEDINNTNLSKDLSVRHLLTLAVGGAIGTGLYVNTGAALSTGGPASLVIDWVIISTCLFTVINSLGELSAAFPVVGGFNVYSMRFIEPSFAFAVNLNYLAQWLVLLPLELVAASITIKYWNDKINSDAWVAIFYATIALANMLDVKSFGETEFVLSMIKILSIIGFTILGIVLSCGGGPHGGYIGGKYWHDPGAFVGHSSGTQFKGLCSVFVTAAFSYSGIEMTAVSAAESKNPRETIPKAAKRTFWLITASYVTILTLIGCLVPSNDPRLLNGSSSVDAASSPLVIAIENGGIKGLPSLMNAIILIAVVSVANSAVYACSRCMVAMAHIGNLPKFLNRVDKRGRPMNAILLTLFFGLLSFVAASDKQAEVFTWLSALSGLSTIFCWMAINLSHIRFRQAMKVQERSLDELPFISQTGVKGSWYGFIVLFLVLIASFWTSLFPLGGSGASAESFFEGYLSFPILIVCYVGHKLYTRNWTLMVKLEDMDLDTGRKQVDLTLRREEMRIERETLAKRSFVTRFLHFWC
# Variants of: B1
# Test: split-ubiquitin yeast two-hybrid (growth of strain NMY51)
# Conditions: with NubG-Bap2 [S. cerevisiae]; sub-panel Ehg1–Bap2; SC–His medium; 24 h starting at OD600 0.1; NubG-vector control est. 0.46; parent: 1.3; read off a plot
row,Variant,response
1,chain 1 F19A,0.72 OD600
2,chain 1 P17A P20A,0.5 OD600

# Same assay, conditions: with NubG-Bap2 [S. cerevisiae]; sub-panel Ehg1–Bap2; SC–His–Ade medium; 24 h starting at OD600 0.1; NubG-vector control est. 0.17; parent: 0.45; read off a plot
row,Variant,response
1,chain 1 F19A,0.27 OD600
2,chain 1 P17A P20A,0.17 OD600

# Variants of: B2
# Test: as above
# Conditions: with NubG-Fur4 [S. cerevisiae]; sub-panel Ehg1–Fur4; SC–His medium; 24 h starting at OD600 0.1; NubG-vector control est. 0.40; parent: 1.8; read off a plot
row,Variant,response
1,chain 1 P17A P20A,0.45 OD600
2,chain 1 F19A,0.65 OD600

# Same assay, conditions: with NubG-Fur4 [S. cerevisiae]; sub-panel Ehg1–Fur4; SC–His–Ade medium; 24 h starting at OD600 0.1; NubG-vector control est. 0.16; parent: 0.95; read off a plot
row,Variant,response
1,chain 1 P17A P20A,0.17 OD600
2,chain 1 F19A,0.22 OD600

# Variants of: B3
# Test: as above
# Conditions: with NubG-Hip1 [S. cerevisiae]; sub-panel Ehg1–Hip1; SC–His medium; 24 h starting at OD600 0.1; NubG-vector control est. 0.48; parent: 1.8; read off a plot
row,Variant,response
1,chain 1 F19A,1.5 OD600
2,chain 1 P17A P20A,1.3 OD600

# Same assay, conditions: with NubG-Hip1 [S. cerevisiae]; sub-panel Ehg1–Hip1; SC–His–Ade medium; 24 h starting at OD600 0.1; NubG-vector control est. 0.20; parent: 0.73; read off a plot
row,Variant,response
1,chain 1 F19A,0.75 OD600
2,chain 1 P17A P20A,0.5 OD600
